The source of these data is patent publication US20240101692A1 (CEMM FORSCHUNGSZENTRUM F R MOLEKULARE MEDIZIN, published 2024).

Substitutions are numbered along the chain they refer to.

Assay [1] addresses heparan sulfate proteoglycan 2 (human, UniProt P98160 22-4391). Nature of the assay: confocal microscopy of human coronary artery specimens stained with Aprily 2 and anti-HSPG2.
Assay [2] concerns the target T1, Fc-hAPRIL C-terminal truncation ps4185 (aa 98-232) (human, UniProt O75888 115-249).
T1 construct: also called Fc-APRIL-ps4185
T1 sequence: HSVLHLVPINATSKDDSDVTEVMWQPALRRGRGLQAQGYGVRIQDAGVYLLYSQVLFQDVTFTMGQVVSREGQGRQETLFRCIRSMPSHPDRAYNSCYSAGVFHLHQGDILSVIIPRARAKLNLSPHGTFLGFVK
Nature of the assay: sandwich ELISA on supernatant of transfected cells, capture Aprily5, detection Aprily 1-biot.

In assay [3] the target is T2, Fc-hAPRIL C-terminal truncation ps4186 (aa 98-231) (human, UniProt O75888 115-248).
T2 construct: also called Fc-APRIL-ps4186
T2 sequence: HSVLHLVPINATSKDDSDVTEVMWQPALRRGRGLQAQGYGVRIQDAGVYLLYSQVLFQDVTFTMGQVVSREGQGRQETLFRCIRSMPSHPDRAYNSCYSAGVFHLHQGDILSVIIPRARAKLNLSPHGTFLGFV
Described as above.

The target in assay [4] is T3, Fc-hAPRIL C-terminal truncation ps4187 (aa 98-230) (human, UniProt O75888 115-247).
T3 construct: also called Fc-APRIL-ps4187
T3 sequence: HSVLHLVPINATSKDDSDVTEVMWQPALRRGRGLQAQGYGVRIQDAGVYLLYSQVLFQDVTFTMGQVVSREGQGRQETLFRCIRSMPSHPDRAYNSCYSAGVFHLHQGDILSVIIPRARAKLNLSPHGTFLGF
Described as above.

Assay [5] deals with T4, Fc-hAPRIL C-terminal truncation ps4188 (aa 98-229) (human, UniProt O75888 115-246).
T4 construct: also called Fc-APRIL-ps4188
T4 sequence: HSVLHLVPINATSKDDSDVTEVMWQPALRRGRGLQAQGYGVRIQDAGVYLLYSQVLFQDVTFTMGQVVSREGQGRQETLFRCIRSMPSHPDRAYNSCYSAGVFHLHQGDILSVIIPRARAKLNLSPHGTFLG
The description is as above.

In assay [6] the target is T5, Fc-hAPRIL WT (ps1307) (human, UniProt O75888 115-250).
T5 construct: APRIL residues are counted from Met18; also called Fc-APRIL-ps1307
T5 sequence: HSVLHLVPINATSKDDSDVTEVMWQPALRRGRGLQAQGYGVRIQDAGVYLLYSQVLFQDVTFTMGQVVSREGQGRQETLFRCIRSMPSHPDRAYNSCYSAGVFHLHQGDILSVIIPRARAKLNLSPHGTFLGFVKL
Described as above.

A further assay concerns the target T6, Flag-mouse APRIL (mouse, UniProt Q9D777 96-241, limits assumed).
T6 construct: Denatured in the assay (SDS-PAGE and Western blot)
T6 sequence (looked up): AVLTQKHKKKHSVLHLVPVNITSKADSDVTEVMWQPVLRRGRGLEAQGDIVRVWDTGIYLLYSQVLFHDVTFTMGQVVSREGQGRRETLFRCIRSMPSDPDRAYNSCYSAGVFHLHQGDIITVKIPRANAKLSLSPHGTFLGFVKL
In words: Western blot of 50 ng Flag-mAPRIL after SDS-PAGE. As for the experimental part: 50 ng of Flag-mouse APRIL “m” or Flag-human APRIL “h” were analyzed by SDS-PAGE on a 12% acrylamide gel, followed by Western blotting with the indicated anti-APRIL antibodies at 1 μg/ml, followed by HRP-coupled anti-mouse secondary reagent, or with a biotinylated anti-Flag antibody (M2-biot) followed by HRP-coupled streptavidin. The micration of molecular weight markers (in kDa) are indicated on the left-hand side.

In assay [7] the target is T1, Fc-hAPRIL C-terminal truncation ps4185 …. In words: sandwich ELISA on supernatant of transfected cells, capture Aprily5, detection Aprily2-biot. (In general: In an ELISA, binding on a coated surface is turned into a signal by an enzyme label.)
The target in assay [8] is T2, Fc-hAPRIL C-terminal truncation ps4186 …. The assay is described as above.
Assay [9] has as its target T3, Fc-hAPRIL C-terminal truncation ps4187 …. Described as above.
Assay [10] concerns the target T4, Fc-hAPRIL C-terminal truncation ps4188 …. The assay is described as above.
In assay [11] the target is T5, Fc-hAPRIL WT (ps1307). The description is as above.

B1: APRIL in human arteries (ligand)
chain: AVLTQKQKKQHSVLHLVPINATSKDDSDVTEVMWQPALRRGRGLQAQGYGVRIQDAGVYLLYSQVLFQDVTFTMGQVVSREGQGRQETLFRCIRSMPSHPDRAYNSCYSAGVFHLHQGDILSVIIPRARAKLNLSPHGTFLGFVKL
notes: Endogenous protein in tissue sections
Turning to B1, the binding result in assay [1] is recorded as “binds”.

B2: Aprily 1 (antibody, V domains shown)
VH: QIQLVQSGPELKKPGETVRISCKASGYNFKTSGMSWVKQAPGKGLKWMGWIDTYAGVPTYTDDFKGRFVFSLETSATTAFLQINNLKNEDTGTYFCAREPGTDNWGQGTSLTVSS
VL: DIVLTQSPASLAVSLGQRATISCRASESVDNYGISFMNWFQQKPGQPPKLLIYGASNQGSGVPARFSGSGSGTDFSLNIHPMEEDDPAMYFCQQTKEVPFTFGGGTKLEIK
notes: Anti-human APRIL monoclonal antibody; Used biotinylated as detection antibody in some ELISAs; also called Aprily 1-biot
As to B2, the binding result in [2] is on record as “binds”; in [3] it was “binds”; in [4] it was “binds”; in [5] it was “binds”; in the assay with Fc-hAPRIL WT (ps1307) [6], “binds”; with Flag-mouse APRIL it was “no binding (tested: 1 µg/ml)”.

B3: Aprily 2 (antibody, V domains shown)
VH: B2 VH with N28T, T53A, V57I, V69A, E73D
VL: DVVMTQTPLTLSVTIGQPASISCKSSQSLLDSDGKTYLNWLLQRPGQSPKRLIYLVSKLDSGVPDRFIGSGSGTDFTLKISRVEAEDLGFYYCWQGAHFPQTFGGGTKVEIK
notes: Anti-human APRIL monoclonal antibody; Used coupled to beads for depletion and biotinylated for detection; also called Aprily 2-biot
With B3, the binding result is “no binding (tested: 1 µg/ml)” with Flag-mouse APRIL; “binds” in [7]; “binds” in assay [8]; “binds” in [9]; “binds” in assay [10]; “binds” with Fc-hAPRIL WT (ps1307) [11].
